Source: paper PMC6949223

Tests used:
[1] = anti-HA immunofluorescence, MDA-MB-231 and BT-549; conditions: glycan lost; control: SGK196-WT
[2] = protein stability in MDA-MB-231 and BT-549 (Fig. S2C); conditions: glycan lost; control: SGK196-WT
[3] = Transwell migration, MDA-MB-231 and BT-549 rescue lines; conditions: glycan lost; control: SGK196-WT re-expressed in shSGK196 cells
[4] = Matrigel Transwell invasion, MDA-MB-231 and BT-549 rescue lines; conditions: glycan lost; control: SGK196-WT re-expressed in shSGK196 cells

B1: SGK196: SGK196-4NQ (protein)
parent chain: MEKQPQNSRRGLAPREVPPAVGLLLIMALMNTLLYLCLDHFFIAPRQSTVDPTHCPYGHFRIGQMKNCSPWLSCEELRTEVRQLKRVGEGAVKRVFLSEWKEHKVALSQLTSLEMKDDFLHGLQMLKSLQGTHVVTLLGYCEDDNTMLTEYHPLGSLSNLEETLNLSKYQNVNTWQHRLELAMDYVSIINYLHHSPVGTRVMCDSNDLPKTLSQYLLTSNFSILANDLDALPLVNHSSGMLVKCGHRELHGDFVAPEQLWPYGEDVPFHDDLMPSYDEKIDIWKIPDISSFLLGHIEGSDMVRFHLFDIHKACKSQTPSERPTAQDVLETYQKVLDTLRDAMMSQAREML
For B1, the localisation_or_trafficking [1] was “no change”, the degradation_or_half_life [2] was “no change” and the “other: suppression of cell migration” value [3] was “decreases”. The “other: suppression of cell invasion” value [4] was “decreases”.
